Measured values published in article PMC8079451, “Phosphopeptide interactions of the Nbs1 N-terminal FHA-BRCT1/2 domains” (Scientific Reports, 2021).
Square brackets hold non-standard residues; d marks the D form. Primed or numbered codes have the meaning given here. Ends that are not written are not given here. Peptide text beside a SMILES is read from it. FITC′ = fluorescein isothiocyanate label; pT = C[C@@H](OP(=O)(O)O)[C@H](N)C(=O)O; pS = N[C@@H](COP(=O)(O)O)C(=O)O

T1: hsNbs1(384) (Homo sapiens, UniProt O60934)
T1 construct: The N-terminal 384 residues of homo sapiens Nbs1 (hsNbs1(384) containing the FHA-BRCT1-BRCT2 domains); made in house; host or cells: E. coli BL21(DE3) pLacI
T1 sequence (O60934 1-384): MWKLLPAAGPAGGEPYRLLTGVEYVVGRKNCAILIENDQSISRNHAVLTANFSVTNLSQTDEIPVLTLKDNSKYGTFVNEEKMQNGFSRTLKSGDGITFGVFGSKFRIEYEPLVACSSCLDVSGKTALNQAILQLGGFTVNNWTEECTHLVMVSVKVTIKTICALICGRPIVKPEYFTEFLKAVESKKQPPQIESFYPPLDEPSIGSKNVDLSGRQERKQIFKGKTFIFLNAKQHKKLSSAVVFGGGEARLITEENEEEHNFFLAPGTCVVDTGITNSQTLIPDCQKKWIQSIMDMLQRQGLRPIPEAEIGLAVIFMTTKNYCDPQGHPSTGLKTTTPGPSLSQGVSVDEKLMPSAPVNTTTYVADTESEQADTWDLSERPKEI

T2: hsNbs1(384)(R28S,K29S,R43A) triple mutant (human, UniProt O60934 1-384, R28S | K29S | R43A)
T2 construct: source: E. coli BL21(DE3) pLacI, purified as the wild type
T2 sequence (looked up): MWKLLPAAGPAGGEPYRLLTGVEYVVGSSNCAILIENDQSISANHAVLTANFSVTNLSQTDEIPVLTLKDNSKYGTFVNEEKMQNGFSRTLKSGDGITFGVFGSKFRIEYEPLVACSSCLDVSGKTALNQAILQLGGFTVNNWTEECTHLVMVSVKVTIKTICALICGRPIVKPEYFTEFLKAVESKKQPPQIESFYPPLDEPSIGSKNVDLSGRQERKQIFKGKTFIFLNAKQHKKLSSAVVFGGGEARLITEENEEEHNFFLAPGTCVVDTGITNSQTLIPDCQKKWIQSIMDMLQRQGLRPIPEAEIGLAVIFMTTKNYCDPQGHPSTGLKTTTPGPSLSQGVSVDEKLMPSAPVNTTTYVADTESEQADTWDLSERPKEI

T3: hsNbs1(384), the N-terminal 384 residues of homo sapiens Nbs1 containing the FHA-BRCT1-BRCT2 domains (human, UniProt O60934 1-384)
T3 construct: gene optimised for E. coli, cloned into pET30a (NdeI/HindIII); also called wt; source: E. coli BL21(DE3) pLacI, purified (Ni-NTA, HiTrap Q, Superdex 75)
T3 sequence (looked up): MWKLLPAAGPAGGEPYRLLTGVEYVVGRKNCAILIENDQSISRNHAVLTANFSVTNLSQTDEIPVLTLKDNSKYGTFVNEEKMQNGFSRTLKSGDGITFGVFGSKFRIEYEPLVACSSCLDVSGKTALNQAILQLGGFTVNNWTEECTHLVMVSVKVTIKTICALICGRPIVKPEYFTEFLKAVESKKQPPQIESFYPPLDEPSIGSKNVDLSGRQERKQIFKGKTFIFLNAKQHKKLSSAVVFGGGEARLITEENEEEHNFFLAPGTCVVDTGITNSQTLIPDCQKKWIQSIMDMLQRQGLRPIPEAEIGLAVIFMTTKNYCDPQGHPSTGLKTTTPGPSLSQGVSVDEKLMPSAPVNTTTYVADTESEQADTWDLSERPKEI


Biological target: T1, hsNbs1(384)
Assay: Fluorescence polarization (FP) binding of FITC-labeled phosphopeptides to hsNbs1(384)
Details: wild-type hsNbs1(384); FP assay
Method: Figure 4 Binding of FITC-labeled peptides to hsNbs1(384). Solid lines with filled data markers show normalized fluorescence polarization of the following peptides (see Table 1 for peptide sequences) as a function of the concentration of hsNbs1(384) corresponding to: CtIP-pS347 (gray); CtIP-pT847 (blue); FANCJ (green); CtIP-859 (orange); ChK2-pT68 (yellow). FP studies were performed at room temperature in 25 mM HEPES (pH 7.4), 150 mM NaCl, 1 mM EDTA, 2 mM DTT, 0.05% Tween20, 0.1% BSA after a 15-min incubation period. The data points were fit to a single-site non-cooperative model.
Phosphopeptide-protein interactions were measured by a fluorescence polarization (FP) assay. 100 nM FITC-labeled phosphopeptides were incubated at room temperature for 15 min with the indicated concentrations of hsNbs1(384) in FP buffer composed of 25 mM HEPES, 150 mM NaCl, 1 mM EDTA, 2 mM DTT, 0.05% Tween20, 0.1% BSA, pH 7.4 prior to the measurement of fluorescence polarization (POLARstar Omega microplate reader, BMG Labtech). All samples were prepared in a 96-well black flat-bottomed polypropylene microplate and each well contained 50 µL. Each well was recorded by 100 flashes with an excitation wavelength of 485 nm, and detection of emission at 520 nm. Data for the interaction of a phosphopeptide with hsNbs1(384) were analyzed using non-linear fitting with a one-site total binding model. All Kd values were determined in triplicate, and reported as mean ± standard deviation. All phosphopeptides used were synthesized by GenScript.

| Molecule | binding to Nbs1(384), in words |
| --- | --- |
| DPYAG(pSpT)DENTDSEEHQE [XRCC1 pS518,pT519, FITC-labeled XRCC1 phosphopeptide with consecutively phosphorylated pSer518-pThr519] | no interaction |
| TRVS[pS]PVFGAT [CtIP pS327, FITC-labeled CtIP pSer327 peptide that targets the tandem BRCA1 BRCT domains] | does not bind |

Same assay, conditions: wild-type hsNbs1(384); FP; Kd 35 µM vs 4.5 µM

| Molecule | difference in Kd between N-terminal and C-terminal fluorescein-tagged XRCC1 pS485,pT488 peptides |
| --- | --- |
| CC(C)C[C@H](NC(=O)[C@H](CCC(=O)O)NC(=O)[C@H](CC(=O)O)NC(=O)[C@H](CCC(=O)O)NC(=O)[C@@H](NC(=O)[C@H](CC(=O)O)NC(=O)CNC(=O)[C@H](COP(=O)(O)O)NC(=O)[C@H](CC(=O)O)NC(=O)[C@H](CCC(=O)O)NC(=O)[C@H](C)NC(=O)CNC(=O)[C@H](CC(N)=O)NC(=O)[C@H](CC(=O)O)NC(=O)[C@H](CCC(N)=O)NC(=O)CNC(=O)[C@H](CCC(=O)O)NC(=O)[C@H](CO)NC(=O)[C@H](CCC(N)=O)NC(=O)[C@@H](NC(=O)CNC(=O)[C@@H](N)CCC(=O)O)C(C)C)[C@@H](C)OP(=O)(O)O)C(=O)N[C@@H](CCCNC(=N)N)C(=O)O (H-EGVQSEGQDNGAED[pS]GD[pT]EDELR-OH) | eightfold |

Biological target: T2, hsNbs1(384)(R28S,K29S,R43A) triple …
Assay: fluorescence polarisation; 100 nM FITC-labeled phosphopeptide with increasing hsNbs1(384); room temperature, 15 min incubation; 25 mM HEPES pH 7.4, 150 mM NaCl, 1 mM EDTA, 2 mM DTT, 0.05% Tween20, 0.1% BSA; one-site model
Details: both partners purified

| Molecule | Kd |
| --- | --- |
| {FITC′}-GGFID[pS]D[pT]DAEEE (Gly-Gly between the N-terminal FITC and the peptide; MDC1, human, stretch around pS329 and pT331; also called hsMDC1; source: synthetic peptide (GenScript)) [MDC1 pS329,pT331 phosphopeptide FITC-GG-FID(pS)D(pT)DAEEE] | 1.47 µM |
| {FITC′}-GGPFGFID[pS]D[pT]DVEEER (Gly-Gly between the N-terminal FITC and the peptide; MDC1, human, one of the SDT repeats; also called second test peptide containing the pSer-Asp-pThr motif; source: synthetic peptide (GenScript)) [hsMDC1 phosphopeptide FITC-GG-PFGFID(pS)D(pT)DVEEER] | 1.6 µM |

Biological target: T3, hsNbs1(384), the N-terminal 384 …
Assay: as above
Details: both partners purified

| Molecule | Kd |
| --- | --- |
| SLETVS[pT]QELYSIPEDK(FITC′) (Checkpoint 2 kinase (Chk2), stretch around pT68; added C-terminal lysine that carries FITC (footnote b: C-terminal K/FITC); source: synthetic peptide (GenScript)) [Chk2 pT68 phosphopeptide SLETVS(pT)QELYSIPED with C-terminal K/FITC] | 98.7 µM |
| GLDLNTSL[pS]PSLLQPGKKKK(FITC′) (CtIP, human, stretch around pS347; added C-terminal lysine that carries FITC (footnote b: C-terminal K/FITC); also called CtIP pSer347 peptide; pSer347 peptide; source: synthetic peptide (GenScript)) [CtIP pS347 phosphopeptide GLDLNTSL(pS)PSLLQPGKKK with C-terminal K/FITC] | 2.64 µM |
| TEDSLRFSDS[pT]SK[pT]PPQEELPK(FITC′) (CtIP, human, stretch around pT312 and pT315; added C-terminal lysine that carries FITC (footnote b: C-terminal K/FITC); also called test peptide containing the pThr312-Ser-Lys-pThr315; source: synthetic peptide (GenScript)) [CtIP pT312,pT315 phosphopeptide TEDSLRFSDS(pT)SK(pT)PPQEELP with C-terminal K/FITC] | 90 µM |
| {FITC′}-GGRYIPPN[pT]PENFWEVG (Gly-Gly between the N-terminal FITC and the peptide; CtIP, human, stretch around pT847; source: synthetic peptide (GenScript)) [CtIP pT847 phosphopeptide FITC-GG-RYIPPN(pT)PENFWEVG] | 22 µM |
| WEVGFPS[pT]QTCMERGYIK(FITC′) (CtIP, human, stretch around pT859; added C-terminal lysine that carries FITC (footnote b: C-terminal K/FITC); also called CtIP-859; source: synthetic peptide (GenScript)) [CtIP pT859 phosphopeptide WEVGFPS(pT)QTCMERGYI with C-terminal K/FITC] | 90.5 µM |
| EDESIYF[pT]PELYDPEIEK(FITC′) (FANCJ helicase, stretch around pT1133; added C-terminal lysine that carries FITC (footnote b: C-terminal K/FITC); A shorter FANCJ phosphopeptide (SIYFpTPELYD) stands in the cited TopBP1 BRCT7/8 structure PDB 3AL3; also called FANCJ pThr1133 phosphopeptide; FANCJ phosphopeptide; source: synthetic peptide (GenScript)) [FANCJ pT1133 phosphopeptide EDESIYF(pT)PELYDPEIE with C-terminal K/FITC] | 26.9 µM |
| {FITC′}-GGFID[pS]D[pT]DAEEE (Gly-Gly between the N-terminal FITC and the peptide; MDC1, human, stretch around pS329 and pT331; also called hsMDC1; source: synthetic peptide (GenScript)) [MDC1 pS329,pT331 phosphopeptide FITC-GG-FID(pS)D(pT)DAEEE] | 0.65 µM |
| EGVQSEGQDNGAED[pS]GD[pT]EDELRK(FITC′) (XRCC1, human, stretch around pS485 and pT488; added C-terminal lysine that carries FITC (footnote b: C-terminal K/FITC); also called XRCC1 pSer485-Gly-Asp-pThr488 peptide containing a C-terminal fluorescein; source: synthetic peptide (GenScript)) [XRCC1 pS485,pT488 phosphopeptide EGVQSEGQDNGAED(pS)GD(pT)EDELR with C-terminal K/FITC] | 4.5 µM |
| {FITC′}-GGDNGAED[pS]GD[pT]EDELR (Gly-Gly between the N-terminal FITC and the peptide; XRCC1, human, stretch around pS485 and pT488; also called XRCC1 pSer485-Gly-Asp-pThr488 peptide with an N-terminal fluorescein tag; source: synthetic peptide (GenScript)) [XRCC1 pS485,pT488 phosphopeptide FITC-GG-DNGAED(pS)GD(pT)EDELR] | 34.8 µM |
| {FITC′}-GGDPYAG[pS][pT]DENTDSEEHQE (Gly-Gly between the N-terminal FITC and the peptide; XRCC1, human, stretch around pS518 and pT519; also called XRCC1 pSer518-pThr519 phosphopeptide; source: synthetic peptide (GenScript)) [XRCC1 pS518,pT519 phosphopeptide FITC-GG-DPYAG(pSpT)DENTDSEEHQE] | > 65 µM |
